This is an account of results in patent publication US20180282410A1 (Hoffmann-La Roche, published 2018).

Assay [1] deals with T1, biotinylated ectodomain of human Robo 4 with C-terminal AcTEV protease site, Avi-tag and 6xHis-tag (human, biotin on the Avi-tag (in vivo biotinylated via co-expression of BirA)).
T1 construct: also called biotinylated human Robo 4
T1 chain: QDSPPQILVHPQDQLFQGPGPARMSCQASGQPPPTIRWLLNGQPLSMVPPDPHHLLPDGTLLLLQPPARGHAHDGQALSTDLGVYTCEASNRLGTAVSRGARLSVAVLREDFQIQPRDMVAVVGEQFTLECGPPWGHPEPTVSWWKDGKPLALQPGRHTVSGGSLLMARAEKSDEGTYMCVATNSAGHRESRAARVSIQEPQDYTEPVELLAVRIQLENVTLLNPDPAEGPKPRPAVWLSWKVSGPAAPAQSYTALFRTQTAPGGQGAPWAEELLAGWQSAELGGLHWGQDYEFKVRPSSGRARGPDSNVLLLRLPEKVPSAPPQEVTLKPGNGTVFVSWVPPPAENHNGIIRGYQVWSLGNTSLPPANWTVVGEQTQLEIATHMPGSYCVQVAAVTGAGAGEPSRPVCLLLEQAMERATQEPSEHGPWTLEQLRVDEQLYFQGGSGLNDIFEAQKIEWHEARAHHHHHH
The experiment in a line: SPR, BioRad ProteOn XPR36, purified Fab, monovalent affinity; human Robo 4; Fab, monovalent affinity. In general terms: In SPR one partner is held on a chip, and binding of the other changes the refractive index at the surface.

The target of assay [2] is T2, recombinant cynomolgus Robo 4 ECD fused to AcTEV protease recognition site, Avi- and 6xHis-tag (cynomolgus).
T2 construct: Biotinylated in the avidity assay
T2 chain: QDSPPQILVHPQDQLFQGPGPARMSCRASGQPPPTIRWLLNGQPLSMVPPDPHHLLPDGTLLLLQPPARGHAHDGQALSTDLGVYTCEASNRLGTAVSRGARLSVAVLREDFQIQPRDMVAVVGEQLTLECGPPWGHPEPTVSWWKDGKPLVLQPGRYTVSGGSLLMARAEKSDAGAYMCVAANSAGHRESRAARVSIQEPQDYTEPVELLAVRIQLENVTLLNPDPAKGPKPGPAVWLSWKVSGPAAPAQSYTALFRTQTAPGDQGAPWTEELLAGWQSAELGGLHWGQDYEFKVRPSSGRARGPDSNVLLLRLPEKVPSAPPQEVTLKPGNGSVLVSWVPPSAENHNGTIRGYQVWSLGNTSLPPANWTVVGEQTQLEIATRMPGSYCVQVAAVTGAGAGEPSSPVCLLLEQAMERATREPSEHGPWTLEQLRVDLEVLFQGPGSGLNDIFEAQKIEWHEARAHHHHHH
The experiment in a line: SPR, BioRad ProteOn XPR36, purified Fab, monovalent affinity; cynomolgus Robo 4; Fab, monovalent affinity.

For assay [3], the target named is T3, murine (mu) Robo 4 ECD-PreS-Avi-His (mouse).
T3 construct: also called recombinant murine Robo 4; murine Robo 4
T3 chain: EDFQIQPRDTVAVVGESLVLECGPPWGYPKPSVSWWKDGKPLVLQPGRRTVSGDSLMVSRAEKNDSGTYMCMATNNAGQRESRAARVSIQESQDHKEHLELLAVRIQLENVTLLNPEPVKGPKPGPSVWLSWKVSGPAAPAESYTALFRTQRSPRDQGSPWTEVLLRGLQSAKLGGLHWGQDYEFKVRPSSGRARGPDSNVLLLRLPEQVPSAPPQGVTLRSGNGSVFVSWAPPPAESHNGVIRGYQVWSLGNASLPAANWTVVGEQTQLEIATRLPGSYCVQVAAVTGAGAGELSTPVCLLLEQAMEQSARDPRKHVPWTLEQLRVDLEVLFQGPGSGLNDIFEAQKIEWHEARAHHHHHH
The experiment in a line: SPR, BioRad ProteOn XPR36, purified Fab.

The Kd is the concentration at which binding is half-saturated.

B1: 7G2 Fab (phage display clone, bacterially expressed) (Fab, V domains shown)
VH: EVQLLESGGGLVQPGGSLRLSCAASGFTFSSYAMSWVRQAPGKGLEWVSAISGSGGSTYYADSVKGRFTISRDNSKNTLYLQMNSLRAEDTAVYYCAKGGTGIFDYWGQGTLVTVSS
VL: EIVLTQSPGTLSLSPGERATLSCRASQSVSSSYLAWYQQKPGQAPRLLIYGASSRATGIPDRFSGSGSGTDFTLTISRLEPEDFAVYYCQQGQLPPRTFGQGTKVEIK
notes: also called clone 7G2
Consider B1, for which the dissociation constant Kd in assay [1] worked out at 14.9 nM; in assay [2] it was 20.5 nM. Also, in assay [3], the binding result is recorded as “no binding”.
